Assay results reported in PMC3103431, “The four Zn fingers of MBNL1 provide a flexible platform for recognition of its RNA binding elements”.

Tests used:
[1] = molecular target: T1, MBNL1 (2-260) (Homo sapiens, UniProt Q9NR56 2-260); assay: competition; vs 32P-2GC 0.02 nM, 33.3 nM MBNL1; 100 mM NaCl, 21 mM Tris pH 7.5, 5 mM MgCl2, 0.1 mM EDTA, 2 mg/mL BSA, 0.1 mg/mL heparin, 0.5 mM BME, 5 mM DTT, 0.02% Triton X-100, 10% glycerol, 0.02 nM RNA, room temperature 30 min; details: protein: recombinant; tags: GST tag removed; label: 5' 32P; single-stranded
T1 sequence: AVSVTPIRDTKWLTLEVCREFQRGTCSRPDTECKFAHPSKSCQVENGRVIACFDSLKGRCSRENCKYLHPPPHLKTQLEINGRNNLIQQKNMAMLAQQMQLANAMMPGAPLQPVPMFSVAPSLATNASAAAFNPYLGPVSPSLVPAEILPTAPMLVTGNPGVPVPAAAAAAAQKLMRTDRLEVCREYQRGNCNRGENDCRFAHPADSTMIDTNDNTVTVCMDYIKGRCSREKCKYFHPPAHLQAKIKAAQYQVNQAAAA

[2] = molecular target: T1, MBNL1 (2-260); assay: EMSA; 5 mM Mg2+; smearing; 100 mM NaCl, 21 mM Tris pH 7.5, 5 mM MgCl2, 0.1 mM EDTA, 2 mg/mL BSA, 0.1 mg/mL heparin, 0.5 mM BME, 5 mM DTT, 0.02% Triton X-100, 10% glycerol, 0.02 nM RNA, room temperature 30 min; details: protein: recombinant; tags: GST tag removed; label: 5' 32P; single-stranded
[3] = molecular target: T1, MBNL1 (2-260); assay: EMSA; 5 mM Mg2+; wild type level; 100 mM NaCl, 21 mM Tris pH 7.5, 5 mM MgCl2, 0.1 mM EDTA, 2 mg/mL BSA, 0.1 mg/mL heparin, 0.5 mM BME, 5 mM DTT, 0.02% Triton X-100, 10% glycerol, 0.02 nM RNA, room temperature 30 min; details: protein: recombinant; tags: GST tag removed; label: 5' 32P; single-stranded
[4] = molecular target: T1, MBNL1 (2-260); assay: EMSA; 5 mM Mg2+; 100 mM NaCl, 21 mM Tris pH 7.5, 5 mM MgCl2, 0.1 mM EDTA, 2 mg/mL BSA, 0.1 mg/mL heparin, 0.5 mM BME, 5 mM DTT, 0.02% Triton X-100, 10% glycerol, 0.02 nM RNA, room temperature 30 min; details: protein: recombinant; tags: GST tag removed; label: 5' 32P; single-stranded
[5] = molecular target: T1, MBNL1 (2-260); assay: as above; details: protein: recombinant; tags: GST tag removed; label: 5' 32P; single-stranded; remark: listed apart in the source
[6] = molecular target: T1, MBNL1 (2-260); assay: as above; details: protein: recombinant, tags: GST tag removed, label: 5' 32P
[7] = molecular target: T1, MBNL1 (2-260); assay: EMSA; 5 mM Mg2+; range for 2, 3 and 4 GC RNAs; 100 mM NaCl, 21 mM Tris pH 7.5, 5 mM MgCl2, 0.1 mM EDTA, 2 mg/mL BSA, 0.1 mg/mL heparin, 0.5 mM BME, 5 mM DTT, 0.02% Triton X-100, 10% glycerol, 0.02 nM RNA, room temperature 30 min; details: protein: recombinant; tags: GST tag removed; label: 5' 32P; single-stranded
[8] = molecular target: T1, MBNL1 (2-260); assay: EMSA; 5 mM Mg2+; smearing; 100 mM NaCl, 21 mM Tris pH 7.5, 5 mM MgCl2, 0.1 mM EDTA, 2 mg/mL BSA, 0.1 mg/mL heparin, 0.5 mM BME, 5 mM DTT, 0.02% Triton X-100, 10% glycerol, 0.02 nM RNA, room temperature 30 min; details: protein: recombinant; tags: GST tag removed; label: 5' 32P; single-stranded; remark: listed apart in the source

Binder: UUUGCUUUUUUUUUUUUUUUUUU (ssRNA) [1GC]
- binding signal [1]: 15 fold weaker than 2GC
- Kd [2]: 45 nM

Binder: CCUGCUCCCCCCCCCCCUGCUCC (ssRNA) [C4]
- binding result [3]: binds

Binder: UUCGCCUUUUUUUUUUUCGCCUU (ssRNA) [CGCC]
- Kd [4]: 7 nM

Binder: AAUGCUAAAAAAAAAAAUGCUAA (ssRNA) [A4]
- binding signal [5]: > 10 fold weaker than 2GC

Binder: UUAGCAUUUUUUUUUUUAGCAUU (ssRNA) [AGCA]
- binding signal ([6]; single-stranded): 5 fold weaker than 2GC

Binder: UUGGCGUUUUUUUUUUUGGCGUU (ssRNA) [GGCG]
- binding signal [6]: 40 fold weaker than 2GC

Binder: CCCGCCCCCCCCCCCCCCGCCCC (ssRNA) [C]
- Kd [4]: 111 nM

Binder: UGCUUUUUUUUUGCUGCUUUUUUUUUGCU (ssRNA) [4GC]
- Kd [7]: 3.16 nM

Binder: UCCUUUUUUUUUCCUGCUUUUUUUUUCCU (ssRNA) [1GC#2]
- binding signal [8]: ~5 fold higher Kd than the 2-4 GC 29-nt RNAs

Binder: UUUGCUUUUUUUUUUUUUGCUUU (ssRNA) [2GC]
- Kd [4]: 11 nM
